This is an account of results in article PMC4177983.

The assay has as its target SF162 soluble Env gp140 trimer (HIV-1 isolate SF162 (clade B)). The assay is described as follows: SPR; 1273 RUs of SF162 gp140 trimer amine-coupled on a CM5 chip; dual injection, 3 µM 4E10 Fv flowed 5 minutes before and during 10 nM Fab b12 or 447-52D; HBS-EP+, 25°C. Background: SPR reads the build-up and loss of mass on a sensor chip optically.

The substance 4E10 Fv came in with a response bound at 3 µM 4E10 Fv of 90 RUs.
